± gives the uncertainty stated by the source.
B1: POU domain, class 3, transcription factor 2, residues 356 to 411; numbered along this chain, P20265 (parent)
chain: KKRTSIEVSVKGALESHFLKCPKPSAQEITSLADSLQLEKEVVRVWFCNRRQKEKR

Variants of: B1
Assay: abundance fitness (aPCA) (normalised: wild type 0, dead -1); higher = more abundant; growth selection in yeast, the domain comes from the species named
Conditions: Homo sapiens

KKRTSIEVSVKGALESNFLKCPKPSAQEITSLADSLQLEKEVVRVWFCNRRQKEKR [H17N] and KKRTSIEVSVKGALESAFLKCPKPSAQEITSLADSLQLEKEVVRVWFCNRRQKEKR [H17A] are within error of each other in abundance fitness: -0.229 ± 0.35 for the first, 0.127 ± 0.1 for the second.

Going from KKRTSIEVSVKGALESDFLKCPKPSAQEITSLADSLQLEKEVVRVWFCNRRQKEKR [H17D] to KKRTSIEVSVKGALESLFLKCPKPSAQEITSLADSLQLEKEVVRVWFCNRRQKEKR [H17L], the abundance fitness rises from -0.833 ± 0.22 to -0.292 ± 0.079.

First: KKRTSIEVSVKGALESSFLKCPKPSAQEITSLADSLQLEKEVVRVWFCNRRQKEKR [H17S]
Second: KKRTSIEVSVKGALESCFLKCPKPSAQEITSLADSLQLEKEVVRVWFCNRRQKEKR [H17C]
The abundance fitness of the first is higher: 0.089 ± 0.095 for the first, -0.283 ± 0.12 for the second.

Compared with KKRTSIEVSVKGALESGFLKCPKPSAQEITSLADSLQLEKEVVRVWFCNRRQKEKR [H17G], KKRTSIEVSVKGALESVFLKCPKPSAQEITSLADSLQLEKEVVRVWFCNRRQKEKR [H17V] is higher in abundance fitness: -0.712 ± 0.1 for the first, -0.287 ± 0.082 for the second.

KKRTSIEVSVKGALESHFIKCPKPSAQEITSLADSLQLEKEVVRVWFCNRRQKEKR [L19I] and KKRTSIEVSVKGALESHFGKCPKPSAQEITSLADSLQLEKEVVRVWFCNRRQKEKR [L19G] are within error of each other in abundance fitness: -0.113 ± 0.15 for the first, -0.245 ± 0.076 for the second.

Compared with KKRTSIEVSVKGALESHFKKCPKPSAQEITSLADSLQLEKEVVRVWFCNRRQKEKR [L19K], KKRTSIEVSVKGALESHFFKCPKPSAQEITSLADSLQLEKEVVRVWFCNRRQKEKR [L19F] is lower in abundance fitness: -0.162 ± 0.14 for the first, -0.474 ± 0.13 for the second.

KKRTSIEVSVKGALESHFCKCPKPSAQEITSLADSLQLEKEVVRVWFCNRRQKEKR [L19C] and KKRTSIEVSVKGALESHFRKCPKPSAQEITSLADSLQLEKEVVRVWFCNRRQKEKR [L19R] are within error of each other in abundance fitness: -0.114 ± 0.13 for the first, 0.006 ± 0.068 for the second.

KKRTSIEVSVKGALESHFTKCPKPSAQEITSLADSLQLEKEVVRVWFCNRRQKEKR [L19T] and KKRTSIEVSVKGALESHFSKCPKPSAQEITSLADSLQLEKEVVRVWFCNRRQKEKR [L19S] are within error of each other in abundance fitness: -0.183 ± 0.12 for the first, -0.03 ± 0.086 for the second.

Going from KKRTSIEVSVKGALESHFPKCPKPSAQEITSLADSLQLEKEVVRVWFCNRRQKEKR [L19P] to KKRTSIEVSVKGALESHFYKCPKPSAQEITSLADSLQLEKEVVRVWFCNRRQKEKR [L19Y], the abundance fitness rises from -0.911 ± 0.17 to -0.248 ± 0.15.

KKRTSIEVSVKGALESHFMKCPKPSAQEITSLADSLQLEKEVVRVWFCNRRQKEKR [L19M] and KKRTSIEVSVKGALESHFVKCPKPSAQEITSLADSLQLEKEVVRVWFCNRRQKEKR [L19V] are within error of each other in abundance fitness: 0.007 ± 0.11 for the first, -0.056 ± 0.075 for the second.

KKRTSIEVSVKGALESHFDKCPKPSAQEITSLADSLQLEKEVVRVWFCNRRQKEKR [L19D] and KKRTSIEVSVKGALESHFEKCPKPSAQEITSLADSLQLEKEVVRVWFCNRRQKEKR [L19E] are within error of each other in abundance fitness: -0.142 ± 0.17 for the first, -0.026 ± 0.095 for the second.

KKRTSIEVSVKGALESHFNKCPKPSAQEITSLADSLQLEKEVVRVWFCNRRQKEKR [L19N] and KKRTSIEVSVKGALESHFLKCCKPSAQEITSLADSLQLEKEVVRVWFCNRRQKEKR [P22C] are within error of each other in abundance fitness: -0.075 ± 0.15 for the first, -0.227 ± 0.15 for the second.

KKRTSIEVSVKGALESHFLKCEKPSAQEITSLADSLQLEKEVVRVWFCNRRQKEKR [P22E] and KKRTSIEVSVKGALESHFLKCHKPSAQEITSLADSLQLEKEVVRVWFCNRRQKEKR [P22H] are within error of each other in abundance fitness: -0.246 ± 0.11 for the first, -0.189 ± 0.17 for the second.

KKRTSIEVSVKGALESHFLKCIKPSAQEITSLADSLQLEKEVVRVWFCNRRQKEKR [P22I] and KKRTSIEVSVKGALESHFLKCFKPSAQEITSLADSLQLEKEVVRVWFCNRRQKEKR [P22F] are within error of each other in abundance fitness: -0.704 ± 0.17 for the first, -0.996 ± 0.37 for the second.

KKRTSIEVSVKGALESHFLKCAKPSAQEITSLADSLQLEKEVVRVWFCNRRQKEKR [P22A] and KKRTSIEVSVKGALESHFLKCDKPSAQEITSLADSLQLEKEVVRVWFCNRRQKEKR [P22D] are within error of each other in abundance fitness: -0.044 ± 0.088 for the first, -0.122 ± 0.12 for the second.

KKRTSIEVSVKGALESHFLKCGKPSAQEITSLADSLQLEKEVVRVWFCNRRQKEKR [P22G] and KKRTSIEVSVKGALESHFLKYPKPSAQEITSLADSLQLEKEVVRVWFCNRRQKEKR [C21Y] are within error of each other in abundance fitness: -0.46 ± 0.09 for the first, -0.506 ± 0.13 for the second.

KKRTSIEVSVKGALESHFLKMPKPSAQEITSLADSLQLEKEVVRVWFCNRRQKEKR [C21M] and KKRTSIEVSVKGALESHFLKFPKPSAQEITSLADSLQLEKEVVRVWFCNRRQKEKR [C21F] are within error of each other in abundance fitness: -0.354 ± 0.11 for the first, -0.351 ± 0.11 for the second.

Going from KKRTSIEVSVKGALESHFLKDPKPSAQEITSLADSLQLEKEVVRVWFCNRRQKEKR [C21D] to KKRTSIEVSVKGALESHFLKWPKPSAQEITSLADSLQLEKEVVRVWFCNRRQKEKR [C21W], the abundance fitness falls from -0.062 ± 0.16 to -0.437 ± 0.11.

KKRTSIEVSVKGALESHFLKIPKPSAQEITSLADSLQLEKEVVRVWFCNRRQKEKR [C21I] and KKRTSIEVSVKGALESHFLKKPKPSAQEITSLADSLQLEKEVVRVWFCNRRQKEKR [C21K] are within error of each other in abundance fitness: -0.484 ± 0.17 for the first, -0.478 ± 0.19 for the second.

Compared with KKRTSIEVSVKGALESHFLKGPKPSAQEITSLADSLQLEKEVVRVWFCNRRQKEKR [C21G], KKRTSIEVSVKGALESHFLKEPKPSAQEITSLADSLQLEKEVVRVWFCNRRQKEKR [C21E] is higher in abundance fitness: -0.521 ± 0.081 for the first, -0.072 ± 0.13 for the second.

Going from KKRTSIEVSVKGALESHFLKQPKPSAQEITSLADSLQLEKEVVRVWFCNRRQKEKR [C21Q] to KKRTSIEVSVKGALESHFLKRPKPSAQEITSLADSLQLEKEVVRVWFCNRRQKEKR [C21R], the abundance fitness falls from -0.01 ± 0.15 to -0.419 ± 0.077.

KKRTSIEVSVKGALESHFLKVPKPSAQEITSLADSLQLEKEVVRVWFCNRRQKEKR [C21V] and KKRTSIEVSVKGALESHFLKAPKPSAQEITSLADSLQLEKEVVRVWFCNRRQKEKR [C21A] are within error of each other in abundance fitness: -0.421 ± 0.092 for the first, -0.304 ± 0.11 for the second.

First: KKRTSIEVSVKGALESHFLKLPKPSAQEITSLADSLQLEKEVVRVWFCNRRQKEKR [C21L]
Second: KKRTSIEVSVKGALESHFLKPPKPSAQEITSLADSLQLEKEVVRVWFCNRRQKEKR [C21P]
The abundance fitness of the first is higher: -0.651 ± 0.094 for the first, -1.14 ± 0.33 for the second.

Variant KKRTSIEVSVKGALESHFLKNPKPSAQEITSLADSLQLEKEVVRVWFCNRRQKEKR [C21N] has an abundance fitness of -0.168 ± 0.16.

Source: the Human Domainome abundance scans (Beltran et al. 2025)
